Measurements as given in patent US20230093211A1.
pKd: −log10 of the molar value.

How the values were obtained:
Assay in all cases: SPR (Biacore T200), p75NTR-Fc captured on Protein A, neurotrophin injected
BDNF = target: T1, BDNF
T1 sequence (P23560 19-247, species assumed, looked up): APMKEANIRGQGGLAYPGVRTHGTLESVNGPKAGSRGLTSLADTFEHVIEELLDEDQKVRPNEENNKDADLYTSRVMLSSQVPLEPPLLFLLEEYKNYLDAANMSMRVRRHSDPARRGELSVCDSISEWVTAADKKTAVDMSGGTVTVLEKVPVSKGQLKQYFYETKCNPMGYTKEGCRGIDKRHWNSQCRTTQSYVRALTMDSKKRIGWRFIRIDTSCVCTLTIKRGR

NGF = target: NGF
Chain of NGF (P01138 122-241): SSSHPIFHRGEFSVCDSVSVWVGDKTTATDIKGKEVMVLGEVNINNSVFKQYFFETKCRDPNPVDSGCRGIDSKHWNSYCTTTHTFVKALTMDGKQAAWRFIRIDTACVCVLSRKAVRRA

NT-3 = target: NT-3
NT-4 = target: T2, NT-4
T2 sequence (P34130 81-210, species assumed, looked up): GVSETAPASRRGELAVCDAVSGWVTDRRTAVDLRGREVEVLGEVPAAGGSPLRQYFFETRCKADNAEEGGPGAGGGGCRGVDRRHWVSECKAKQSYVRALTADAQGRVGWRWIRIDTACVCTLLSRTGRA

Chain of p75NTR-Fc (Fc fusion) (chain): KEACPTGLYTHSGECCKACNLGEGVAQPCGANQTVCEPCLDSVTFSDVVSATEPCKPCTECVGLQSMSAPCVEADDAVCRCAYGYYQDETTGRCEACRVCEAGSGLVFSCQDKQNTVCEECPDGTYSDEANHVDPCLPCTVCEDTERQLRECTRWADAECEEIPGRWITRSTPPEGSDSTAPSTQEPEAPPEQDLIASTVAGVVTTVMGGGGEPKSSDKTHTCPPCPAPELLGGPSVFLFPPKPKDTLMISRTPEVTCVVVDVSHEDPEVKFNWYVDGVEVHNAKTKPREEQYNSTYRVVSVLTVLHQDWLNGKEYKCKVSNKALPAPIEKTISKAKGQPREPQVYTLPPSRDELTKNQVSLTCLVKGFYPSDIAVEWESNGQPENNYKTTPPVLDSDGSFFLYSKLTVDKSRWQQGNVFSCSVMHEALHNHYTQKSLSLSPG

Substance: p75NTR-Fc (Fc fusion)
- pKd (BDNF): 10.38
- pKd (NGF): 9.26
- pKd (NT-3): 10.85
- pKd (NT-4): 9.74
